Laboratory results reported in patent US20170355768A1 (Bristol-Myers Squibb, published 2017).

Molecular target: T1, human SLAM family member 7 (hSLAMF7) expressed on A20-hSLAMF7-GFP cells (human, UniProt Q9NQ25 23-335)
T1 construct: also called CS1; CS1-L
Test: flow cytometry, 6.25 ug/ml Elotuzumab on A20-hSLAMF7-GFP cells, anti-human IgG-PE secondary
Method: FIG. 3. Elotuzumab binding to hSLAMF7 expressed in A20 cells was confirmed by flow cytometry. A20-GFP or A20-hSLAMF7-GFP cells were incubated with 6.25 ug/ml Elotuzumab (BMS), washed twice and incubated with anti-human IgG-PE secondary antibody. The frequency of cells staining positive for GFP and hSLAMF7 is shown at 0 days.
To determine whether hSLAMF7 expressed in A20 is recognized by Elotuzumab, A20-GFP and A20-hSLAMF7-GFP cells were stained with Elotuzumab. A20-GFP or A20-hSLAMF7-GFP cells were incubated with 6.25 ug/ml Elotuzumab (BMS), washed twice and incubated with anti-human IgG-PE secondary antibody. The frequency of cells staining positive for GFP and hSLAMF7 was determined using flow cytometry.

binding result: binds
B1: Elotuzumab (antibody, V domains shown)
VH: EVQLVESGGGLVQPGGSLRLSCAASGFDFSRYWMSWVRQAPGKGLEWIGEINPDSSTINYAPSLKDKFIISRDNAKNSLYLQMNSLRAEDTAVYYCARPDGNYWYFDVWGQGTLVTVSS
VL: DIQMTQSPSSLSASVGDRVTITCKASQDVGIAVAWYQQKPGKVPKLLIYWASTRHTGVPDRFSGSGSGTDFTLTISSLQPEDVATYYCQQYSSYPYTFGQGTKVEIK
notes: also called BMS-901608; HuLuc63
